Test results as given in US20260209291A1.

Columns and labels:
Assay in all cases: cell-based or functional assay
[1] = target: T1, GDF11 (Growth Differentiation Factor 11) (Homo sapiens (Human)) (UniProt O95390)
T1 sequence: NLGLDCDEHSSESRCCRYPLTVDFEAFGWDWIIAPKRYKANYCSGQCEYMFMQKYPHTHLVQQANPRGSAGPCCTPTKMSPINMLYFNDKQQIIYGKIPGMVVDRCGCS

[2] = target: T2, myostatin (Homo sapiens (Human)) (UniProt O14793)
T2 sequence: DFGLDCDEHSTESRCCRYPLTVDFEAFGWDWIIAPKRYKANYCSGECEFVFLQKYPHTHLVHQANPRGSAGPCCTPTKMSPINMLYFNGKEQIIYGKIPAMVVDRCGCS

activin A (human) = target: T3, activin A (human) (UniProt P08476)
T3 sequence: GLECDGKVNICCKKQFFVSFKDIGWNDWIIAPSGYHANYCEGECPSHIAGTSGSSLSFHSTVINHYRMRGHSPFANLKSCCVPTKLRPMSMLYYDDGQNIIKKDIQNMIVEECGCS

Chain of VGFR(½)-hFc (Aflibercept) (Fc fusion) (chain): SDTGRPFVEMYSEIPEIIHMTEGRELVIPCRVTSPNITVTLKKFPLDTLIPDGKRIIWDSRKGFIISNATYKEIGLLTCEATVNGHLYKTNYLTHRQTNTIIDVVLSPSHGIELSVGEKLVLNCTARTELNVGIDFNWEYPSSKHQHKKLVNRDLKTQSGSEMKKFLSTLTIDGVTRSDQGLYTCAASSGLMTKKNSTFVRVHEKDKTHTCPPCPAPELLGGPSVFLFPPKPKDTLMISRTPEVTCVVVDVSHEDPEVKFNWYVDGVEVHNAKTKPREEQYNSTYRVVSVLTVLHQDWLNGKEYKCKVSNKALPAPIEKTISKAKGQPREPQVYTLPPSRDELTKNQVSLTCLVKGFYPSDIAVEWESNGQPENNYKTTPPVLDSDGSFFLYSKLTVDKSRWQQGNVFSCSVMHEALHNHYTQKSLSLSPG

Row | Substance | neutralization of GDF11 signaling (pSmad2/3 luciferase reporter bioassay, HEK293) [1] [nM] | neutralization of myostatin signaling (pSmad2/3 luciferase reporter bioassay, HEK293) [2] [nM] | neutralization of activin A signaling (pSmad2/3 luciferase reporter bioassay, HEK293) (activin A (human)) [nM]
1 | FSD1 (Q124A, E126A) (single entity produced in E. coli) (from UniProt P19883 93-165) | – | > 822 | > 822
2 | FSD1 (Q124A) (single entity produced in E. coli) (from UniProt P19883 93-165) | – | > 822 | > 822
3 | TNFR2-hFc (Etanercept) (Fc fusion) | > 8.2 | > 8.2 | > 8.2

Continued, values first:

Row | neutralization of GDF11 signaling (pSmad2/3 luciferase reporter bioassay, HEK293) [1] [nM] | neutralization of myostatin signaling (pSmad2/3 luciferase reporter bioassay, HEK293) [2] [nM] | neutralization of activin A signaling (pSmad2/3 luciferase reporter bioassay, HEK293) (activin A (human)) [nM] | Substance
4 | > 8.2 | > 8.2 | – | VGFR(½)-hFc (Aflibercept) (Fc fusion)
5 | – | > 822 | > 822 | FSD1 (E126A) (single entity produced in E. coli) (from UniProt P19883 93-165)
